Results reported in publication PMC3009601, “Structural Basis for Apoptosis Inhibition by Epstein-Barr Virus BHRF1” (PLoS Pathogens, 2010).

T1: BHRF1ΔC31 (Epstein-Barr virus, UniProt P03182)
T1 chain: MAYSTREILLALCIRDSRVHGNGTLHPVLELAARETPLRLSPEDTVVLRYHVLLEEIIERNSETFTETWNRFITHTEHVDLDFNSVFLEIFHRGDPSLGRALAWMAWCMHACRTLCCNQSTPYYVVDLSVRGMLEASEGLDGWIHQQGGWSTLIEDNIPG

T2: BHRF1ΔC31 (Epstein-Barr virus, UniProt P03182)
T2 construct: Epstein-Barr virus BHRF1 (viral Bcl-2 homolog) lacking the C-terminal 31 residues (ΔC31); electron density seen for residues 2-158 in the Bim complex; Cloned into pET DUET with BamHI and EcoRI; also called recombinant C-terminally truncated form of BHRF1; recombinant BHRF1; source: E. coli BL21 DE3 pLysS, purified (nickel Hi-Trap chelating column, Superdex 200 gel filtration)
T2 sequence: T1 chain


Key:
[1] = target: T3, BHRF1 (recombinant; BHRF1ΔC31) (Epstein-barr virus strain ag876, UniProt P0C6Z1); assay: biosensor assay; type: binding
T3 construct: C-terminally truncated (last 31 residues removed, ΔC31), His-tagged, E. coli BL21(DE3) pLysS; the ABT-737 sentence says only 'recombinant BHRF1'

[2] = target: BHRF1ΔC31 (Epstein-Barr virus) (UniProt P03182); assay: ITC; VP-ITC (MicroCal), recombinant BHRF1ΔC31 with BH3 domain peptides; Kd values are the means of 3 experiments ± SD
BHRF1ΔC31 [3] = target: T1, BHRF1ΔC31; assay: ITC
BHRF1ΔC31 [4] = target: T2, BHRF1ΔC31; assay: ITC; VP-ITC (MicroCal), recombinant BHRF1ΔC31 with BH3 domain peptides; Kd values are the means of 3 experiments ± SD; details: both partners purified

Molecule | Kd [2] [nM] | Kd (BHRF1ΔC31 [4]) [nM] | also measured
CN(C)CC[C@H](CSc1ccccc1)Nc1ccc(S(=O)(=O)NC(=O)c2ccc(N3CCN(Cc4ccccc4-c4ccc(Cl)cc4)CC3)cc2)cc1[N+](=O)[O-] [ABT-737] | – | – | IC50 [1]: > 20000 nM
human Bak BH3 26-mer peptide | 150 | – | –
human Bim BH3 26-mer peptide | 18 | – | –
human Puma BH3 26-mer peptide | 70 | – | –
PQDASTKKLSECLKRIGDELDSNMELQR [human Bax BH3 28-mer peptide] | – | > 1000 | Kd (BHRF1ΔC31 [3]): 1400 nM
SESQEDIIRNIARHLAQVGDSMDRSIPPGLVNGL [human Bid BH3 34-mer peptide] | – | 110 | –
